We go through two molecules from US20240336656A1.

Experiment [1] addresses CD137 (TNFRSF9) on cells (human), Q07011. The experiment is described as follows: cell-based or functional assay.
Experiment [2] has as its target T1, cyno CD137 extracellular domain (cyno), A9YYE7.
T1 chain: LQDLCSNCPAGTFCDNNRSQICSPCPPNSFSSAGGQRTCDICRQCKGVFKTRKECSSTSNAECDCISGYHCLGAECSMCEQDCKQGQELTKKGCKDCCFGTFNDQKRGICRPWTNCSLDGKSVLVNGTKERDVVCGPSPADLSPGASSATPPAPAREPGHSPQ
Kind of experiment: SPR direct binding, BCY13582 captured with reversible biotin capture kit, soluble CD137 ECD; n = 1.

Experiment [3] concerns the target human CD137 extracellular domain (human), Q07011. Kind of experiment: SPR direct binding, BCY13582 captured with reversible biotin capture kit, soluble CD137 ECD; n = 3.

Starred links: 1 amine or outer side, 2 acyl side, 3 side chain; linkers in the order of their positions; H or OH if unused. Positions of bridges follow the written chain, without caps; N, C: chain ends. Non-standard residues stand in square brackets, D forms with d. Groups on a side chain read outwards from the residue. Chains are numbered I, II in the order given. No end group written: not given here. *: point of attachment. TATA = O=C(CC[*:1])N1CN(C(=O)CC[*:2])CN(C(=O)CC[*:3])C1; PEG12 = NCCOCCOCCOCCOCCOCCOCCOCCOCCOCCOCCOCCOCCC(=O)O; Biotin = O=C1N[C@H]2[C@H](CS[C@H]2CCCCC(=O)*)N1; 1Nal = N[C@@H](Cc1cccc2ccccc12)C(=O)O; Hyp = O=C(O)[C@@H]1C[C@@H](O)CN1; hArg = N=C(N)NCCCC[C@H](N)C(=O)O; tBuAla = CC(C)(C)C[C@H](N)C(=O)O; Nle = CCCC[C@H](N)C(=O)O; Pent4ynoyl = C#CCCC(=O)*

Chain of CD137 (TNFRSF9) on cells (human), Q07011 (Q07011 24-255): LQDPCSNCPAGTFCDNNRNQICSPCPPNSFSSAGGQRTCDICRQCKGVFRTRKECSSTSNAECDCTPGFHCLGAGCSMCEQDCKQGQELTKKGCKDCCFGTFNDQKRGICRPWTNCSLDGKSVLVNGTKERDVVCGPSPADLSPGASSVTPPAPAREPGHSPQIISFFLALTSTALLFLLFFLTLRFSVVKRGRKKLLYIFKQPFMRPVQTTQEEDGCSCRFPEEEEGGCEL
Chain of human CD137 extracellular domain (human), Q07011 (Q07011 24-186): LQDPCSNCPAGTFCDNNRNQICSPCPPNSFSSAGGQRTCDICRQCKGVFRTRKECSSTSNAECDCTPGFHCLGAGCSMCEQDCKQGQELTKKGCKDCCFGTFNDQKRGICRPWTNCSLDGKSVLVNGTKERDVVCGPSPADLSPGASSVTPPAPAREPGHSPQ

B1: BCY13582 (peptide)
peptide 1: {N‑(acid-PEG3)‑N‑bis(PEG3-azide) linker}-CP[1Nal][dD]CM[hArg]DWSTP[Hyp]WC
peptide 2: Ac-C[tBuAla]PE[dK](Pent4ynoyl)PYCFADPY[Nle]CA
peptide 3: Ac-C[tBuAla]PE[dK](Pent4ynoyl)PYCFADPY[Nle]CK([PEG12-Biotin])
modifications: linker I:1-I:5-I:15, II:1-II:8-II:15, III:1-III:8-III:15 via TATA; not fully specified (bridges); also: chains 2 and 3 triazole-clicked via D-Lys(PYA) to the N-(acid-PEG3)-N-bis(PEG3-azide) linker, chain 1 joined to the linker at its N-terminus
By Kd is commonly meant the constant that tells how readily two partners part at equilibrium. On to B1, for which, in experiment [1], the EC50 (nM) of fold induction over background, CD137 reporter assay, coculture with HT1376 (human) worked out at 0.58 nM and the EC50 (nM) of fold induction over background, CD137 reporter assay, coculture with MDA-MB-468 (human) turned out to be 0.34 nM. Besides, the Kd in experiment [2] is 4.23 nM. In experiment [3], this molecule gave a Kd of 8.4 nM.

B2: BCY13583 (peptide)
peptide 1: {N‑(acid-PEG3)‑N‑bis(PEG3-azide) linker}-CP[1Nal][dD]CM[hArg]DWSTP[Hyp]WC
peptide 2: Ac-C[tBuAla]PE[dK](Pent4ynoyl)PYCFADPY[Nle]CA
peptide 3: Ac-C[tBuAla]PE[dK](Pent4ynoyl)PYCFADPY[Nle]CK(Alexa Fluor 488)
modifications: linker I:1-I:5-I:15, II:1-II:8-II:15, III:1-III:8-III:15 via TATA; not fully specified (bridges); also: chains 2 and 3 triazole-clicked via D-Lys(PYA) to the N-(acid-PEG3)-N-bis(PEG3-azide) linker, chain 1 joined to the linker at its N-terminus
As for B2, in experiment [1], the EC50 (nM) of fold induction over background, CD137 reporter assay, coculture with HT1376 (human) is 1.7 nM and the EC50 (nM) of fold induction over background, CD137 reporter assay, coculture with MDA-MB-468 (human) came out at 0.84 nM.
